Reference: US20210388087A1 (Chugai, published 2021)

B1: CE115HA000 Y55G (antibody, human IgG1, kappa, L234A L235A, N297A, name in Kabat numbering)
heavy: QVQLVESGGGVVQPGRSLRLSCAASGFTFSNAWMHWVRQAPGKGLEWVAQIKAKSNNGATYYAESVKGRFTISRDDSKNSLYLQMNSLKTEDTAVYYCRYVHYGAYYGVDAWGQGTTVTVSSASTKGPSVFPLAPSSKSTSGGTAALGCLVKDYFPEPVTVSWNSGALTSGVHTFPAVLQSSGLYSLSSVVTVPSSSLGTQTYICNVNHKPSNTKVDKKVEPKSCDKTHTCPPCPAPEAAGGPSVFLFPPKPKDTLMISRTPEVTCVVVDVSHEDPEVKFNWYVDGVEVHNAKTKPREEQYASTYRVVSVLTVLHQDWLNGKEYKCKVSNKALPAPIEKTISKAKGQPREPQVYTLPPSRCELTKNQVSLSCAVKGFYPSDIAVEWESNGQPENNYKTTPPVLDSDGSFFLVSKLTVDKSRWQQGNVFSCSVMHEALHNHYTQKSLSLSPDYKDDDDK
chain: EPKSSDKTHTCPPCPAPELLGGPSVFLFPPKPKDTLMISRTPEVTCVVVDVSHEDPEVKFNWYVDGVEVHNAKTKPREEQYNSTYRVVSVLTVLHQDWLNGKEYKCKVSNKALPAPIEKTISKAKGQPREPQVCTLPPSRDELTKNQVSLWCLVKGFYPSDIAVEWESNGQPENNYKTTPPVLDSDGSFFLYSKLTVDKSRWQQGNVFSCSVMHEALHNRYTQKSLSLSP
light: DIVMTQSPLSLPVTPGEPASISCRSSQSLVHSNRNTYLHWYQQKPGQAPRLLIYKVSNRFSGVPDRFSGSGSGTDFTLKISRVEAEDVGVYYCGQGTQVPYTFGQGTKLEIKRTVAAPSVFIFPPSDEQLKSGTASVVCLLNNFYPREAKVQWKVDNALQSGNSQESVTEQDSKDSTYSLSSTLTLSKADYEKHKVYACEVTHQGLSSPVTKSFNRGEC
notes: one-arm antibody
B2: CE115HA000 Y55S (antibody, human IgG1, kappa, L234A L235A, N297A, name in Kabat numbering)
heavy: QVQLVESGGGVVQPGRSLRLSCAASGFTFSNAWMHWVRQAPGKGLEWVAQIKAKSNNSATYYAESVKGRFTISRDDSKNSLYLQMNSLKTEDTAVYYCRYVHYGAYYGVDAWGQGTTVTVSSASTKGPSVFPLAPSSKSTSGGTAALGCLVKDYFPEPVTVSWNSGALTSGVHTFPAVLQSSGLYSLSSVVTVPSSSLGTQTYICNVNHKPSNTKVDKKVEPKSCDKTHTCPPCPAPEAAGGPSVFLFPPKPKDTLMISRTPEVTCVVVDVSHEDPEVKFNWYVDGVEVHNAKTKPREEQYASTYRVVSVLTVLHQDWLNGKEYKCKVSNKALPAPIEKTISKAKGQPREPQVYTLPPSRCELTKNQVSLSCAVKGFYPSDIAVEWESNGQPENNYKTTPPVLDSDGSFFLVSKLTVDKSRWQQGNVFSCSVMHEALHNHYTQKSLSLSPDYKDDDDK
chain: EPKSSDKTHTCPPCPAPELLGGPSVFLFPPKPKDTLMISRTPEVTCVVVDVSHEDPEVKFNWYVDGVEVHNAKTKPREEQYNSTYRVVSVLTVLHQDWLNGKEYKCKVSNKALPAPIEKTISKAKGQPREPQVCTLPPSRDELTKNQVSLWCLVKGFYPSDIAVEWESNGQPENNYKTTPPVLDSDGSFFLYSKLTVDKSRWQQGNVFSCSVMHEALHNRYTQKSLSLSP
light: DIVMTQSPLSLPVTPGEPASISCRSSQSLVHSNRNTYLHWYQQKPGQAPRLLIYKVSNRFSGVPDRFSGSGSGTDFTLKISRVEAEDVGVYYCGQGTQVPYTFGQGTKLEIKRTVAAPSVFIFPPSDEQLKSGTASVVCLLNNFYPREAKVQWKVDNALQSGNSQESVTEQDSKDSTYSLSSTLTLSKADYEKHKVYACEVTHQGLSSPVTKSFNRGEC
notes: one-arm antibody

Target: T1, CD3 epsilon homodimer protein (UniProt P07766 23-126)
T1 construct: also called CD3 (CD3 epsilon)
T1 sequence (P07766 23-126): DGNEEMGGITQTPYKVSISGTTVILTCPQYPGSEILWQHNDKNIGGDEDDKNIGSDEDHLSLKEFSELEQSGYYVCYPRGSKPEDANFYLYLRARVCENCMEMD
Assay: SPR, CD3 epsilon homodimer on chip, one-arm antibody as analyte;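 also: surface plasmon resonance at 25 °C with CD3 epsilon homodimer amine-coupled to a CM4 sensor chip, antibody injected as analyte, HBS-EP+ as running buffer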

KD ratio (KD of CE115HA000/KD of altered form)	Binder
0.99	B1
5.65	B2
